In PMC7506613:

Molecular target: T1, IIA2 peptide (lambda-Cro mutant, helix-turn-helix) (phage lambda (designed mutant)) (UniProt P03040)
T1 sequence: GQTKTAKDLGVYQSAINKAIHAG
Assay: fluorescence titration (520 nm)
Details: fluorescein-labeled peptide; Fluorescence: 20 uM (so in the source) phosphate buffer, room temperature, 15 min; CD: 20 mM phosphate pH 7.4 (stated for peptide CD), 20 uM each; microarray: PBS …

| Sequence | Kd [µM] |
| --- | --- |
| GCAATGGTACGGTACTTCCGGGCTGGCCAGATCAGACCCCGGATGATCATCCTTGTGAGAACCACAAAAGTGCACGCTACTTTGCTAA [SA23 aptamer] | 1.64 |
| TCCGGGCTGGCCAGATCAGACCCCGGA [SA23 short2] | 9.61 |
| TCCGGGG (double strand) [SA23 short1] | 5.81 |
